Test results from US20230391856A1 (ICAHN SCHOOL OF MEDICINE AT MOUNT SINAI, published 2023).

B1: SARS2-1G9_f3 (antibody, V domains shown)
VH: QVQLVQSGAEVKKPGASVKVSCKASGYTFTSYDIIWVRQATGQGLEWMGWMSPNSGNTGYAQKFQGRVTMTRNTSISTAYMELSSLRSEDTAVYYCARFGYGSGALDYYYYGLDVWGQGTTVTVSS
VL: not shown
notes: also called antibody number 5
B2: SARS2-16C12_f3 (antibody, V domains shown)
VH: QVQLVQSGAEVKKPGASVKVSCKASGYTFTSYDIIWVRQATGQGLEWMGWMSPNSGNTGYAQKFQGRVTMTRNTSISTAYMELSSLRSEDTAVYYCARFGYGSGALDYYYYGLDVWGQGTTVTVSS
VL: not shown
notes: also called antibody number 16; family B
B3: SARS2-5D7_f3 (antibody, V domains shown)
VH: QVQLVQSGAEVKKPGTSVKVSCKTSGYTFTSYDIIWVRQATGQGLEWMGWMSPKNGNTGYAQRFQGRVTMTRNTSISTAYMELSSLRSEDTAVYYCARFGYGSGALDYYYYGLDVWGQGTTVTVSS
VL: EIVLTQSPGTLSLSPGERATLSCRASQSVRSSHLAWYRQKPGQAPRLLIYGASSRATGIPDRFSGRGSGTDFTLTISRLEPEDFAVYYCQQYNISPITFGQGTRLEIK
notes: also called antibody number 6
B4: SARS2-18E7_f3 (antibody, V domains shown)
VH: QVQLVQSGAEVKKPGASVTVSCKASGYTFTSYDIIWVRQATGQGLEWMGWMSPNSGNTGYAQRFQGRVTMTRNTSISTAYMELSSLRSEDTAVYYCARFGYGSGALDYYYYGLDVWGQGTTVTVSS
VL: not shown
notes: also called antibody number 19
B5: SARS2-1D10_f3 (antibody, V domains shown)
VH: QVQLVQSGAEVKKPGASVKVSCKASGYTFTSYDIIWVRQASGQGLEWMGWMSPNSGNTGYAQKFQGRVTMTRNTSINTAYMELSSLRSEDTAVYYCARFGYGSGALDYYYYGLDVWGQGTTVTVSS
VL: not shown
notes: also called antibody number 3
B6: SARS2-5H12_f3 (antibody, V domains shown)
VH: QVQLVQSGAEVKKPGTSVKVSCKTSGYTFPSYDIIWVRQATGQGLEWMGWMSPKNGNTGFAQRFQGRVTMTRNTSISTAYMELSSLRSEDTAVYYCARFGYGSGALGYYYYGLDVWGQGTTVTVSS
VL: EIVLTQSPGTLSLSPGERATLSCRASQSVRSSHLAWYRQKPGQAPRLLIYGASSRATGIPDRFSGRGSGTDFTLTISRLEPEDFAVYYCQQYNFSPITFGQGTRLEIK
notes: also called antibody number 7
B7: 11G2_f3 (antibody, V domains shown)
VH: QVQLVQSGAEVKKPGASVKVSCKASGYTFTSYDITWVRQATGQGLEWMGWMSPNSGNTGYAQKFQGRVSMTRNTSISTAYMELSSLRSEDTAVYYCARFGYGSGALDYYYYGLDVWGQGTTVTVSS
VL: EIVLTQSPGTLSLSPGERATLSCRASQSVRNSHLAWYQQKPGQAPRLLIYGASSRATGIPDRFSGSGSGTDFTLTISRLEPEDFAVYYCQQFGSSPITFGQGTRLEIK
notes: also called SARS2-11G2_S; antibody number 13
B8: SARS2-1C12_f3 (antibody, V domains shown)
VH: QVQLVQSGAEVKKPGASVKVSCKASGYTFTSYDITWVRQATGQGLEWMGWMSPNSGNTGYTQKFQGRVTMTRNTSISTAYMELSSLRSEDTAVYYCARFGYGSGALDYYYYGLDVWGQGTTVTVSS
VL: EIVLTQSPGTLSLSPGERATLSCRASQSVRSSHLAWYQQKPGQAPRLLIYGASSRATGIPDRFSGSGSGTDFTLTISRLEPEDFAVYYCQQYNNSPITFGQGTRLEIK
notes: also called antibody number 1
B9: SARS2-1D5_f3 (antibody, V domains shown)
VH: QVQLVQSGAEVKKPGASVKVSCKASGYTFTSYDITWVRQATGQGLEWMGWMSPNSGNTGYAQKFQGRVTMTRNTSISTAYMELNSLRSEDTAVYYCARFGYGSGALDYYYYGLDVWGQGTTVTVSS
VL: EIVLTQSPGTLSLSPGDRATLSCRASQSVRSSHLAWYQQKPGQAPRLLIYGASSRATGIPDRFSGSGSGTDFSLTISRLEPEDFAVYYCQQFGSSPITFGQGTRLEIK
notes: also called antibody number 2
B10: SARS2-17A8_f3 (antibody, V domains shown)
VH: QVQLVQSGAEVKKPGASVKVSCKASGYTFTSYDIIWVRQATGQGLEWMGWMSPNSGNTGYAQKFQGRVTMTKNTSISTAYMELSSLRSEDTAVYYCARFGYGSGALDYYYYGLDVWGQGTTVTVSS
VL: not shown
notes: also called antibody number 17
B11: SARS2-16C5_f3 (antibody, V domains shown)
VH: QVQLVQSGAEVKKPGASVKVSCKASGYTFTSYDIIWVRQATGQGLEWMGWMSPNSGNTGYAQKFQGRVTMTRNTSIGTAYMELSSLRSEDTAVYFCARFGYGSGALDYYYYGLDVWGQGTTVTVSS
VL: EIVLTQSPGTLSLSPGERATLSCRASQSVRSSHLAWYQQKPGQAPRLLIYGASSRATGIPDRFSGSGSGTDFTLTISRLEPEDFAVYYCQQYNNSPITFGQGTRLEIK
notes: also called antibody number 15; family B
B12: SARS2-17F2_f3 (antibody, V domains shown)
VH: QVQLVQSGAEVKRPGASVKVSCKASGYTFTSYDITWVRQATGQGLEWMGWMSPDSGNTGYAQRFQGRVTMTRNTSISTAYMELSSLRSEDTAVYYCARFGYGSGALDYYYYGLDVWGQGTTVTVSS
VL: EIVLTQSPGTLSLSPGERATLSCRASQSVRSSHLAWYQQKPGQAPRLLIYGASSRATGIPDRFSGSGSGTDFTLTISRLEPEDFAVYYCQQYNSSPITFGQGTRLEIK
notes: also called antibody number 18
B13: SARS2-8H4_f3 (antibody, V domains shown)
VH: QVQLVQSGAEVKKPGASVKVSCKASGYTFTSYDITWVRQATGQGLEWMGWMSPNSGNTGYAQKFQGRVTMTRNTSISTAYMELSSLRSEDTAVYYCARFGYGSGALDYYYYGLDVWGQGTTVTVSS
VL: EIVLTQSPGTLSLSPGERATLSCRASQSVRSSHLAWYQQKPGQAPRLLIYGASSRATGIPDRFSGSGSGTDFTLTISRLEPEDFAVYYCQQFGSSPITFGQGTRLEIK
notes: also called antibody number 9
B14: SARS2-9C6_f3 (antibody, V domains shown)
VH: QVQLVQSGAEVKKPGASVKVSCKASGYTFTSYDITWVRQATGQGLEWMGWMSPKSGNTGYAQKFQGRVTMTRNTSISTAYMELSSLRSEDTAVYYCARFGYGSGALDYYYYGLDVWGQGTTVTVSS
VL: EIVLTQSPGTLSLSPGERATLSCRASQSVRSSHLAWYRQKPGQAPRLLIYGASSRATGIPDRFSGRGSGTDFTLTISRLEPEDFAVYYCQQYNSSPITFGQGTRLEIK
notes: also called antibody number 10
B15: SARS2-7C10_f3 (antibody, V domains shown)
VH: QVQLVQSGAEVKKPGASVKVSCKASGYTFTSYDITWVRQATGQGLEWMGWMSPNSGNTGYAQKFQGRVTMTRNTSISTAYMELRSLRSEDTAVYYCARFGYGSGALDYYYYGLDVWGQGTTVTVSS
VL: EIVLTQSPGTLSLSPGERATLSCRASQSVRSSHLAWSQQKPGQAPRLLIYGASSRATGIPDRFSGSGSGTDFTLTISRLEPEDFAVYYCQQFGSSPITFGQGTRLEIK
notes: also called antibody number 8
B16: SARS2-1E2_f3 (antibody, V domains shown)
VH: QVQLVQSGAEVKKPGASVKVSCKASGYTFTSYDITWVRQATGQGLEWMGWMSPNSGNTGYAQKFQGRVTMTRNTSISTAYMELSSLRSEDTAVYYCARFGYGSGALDYYYYGLDVWGQGTTVTVSS
VL: EIVLTQSPGTLSLSPGERATLSCRASQSVRSSHFAWYQQKPGQAPRLLIYGASSRATGIPDRFSGSGSGTDFTLTISRLEPEDFAVCYCQQYGSSPITFGQGTRLEIK
notes: also called antibody number 4
B17: SARS2-10D6_f3 (antibody, V domains shown)
VH: EVQLVETGGGLIQPGGSLRLSCAASGITVSSNYMNWVRQAPGKGLEWVSVIYSGGSTYYADSVKGRFTISRDNSKNTLYLQMNSLRAEDTAVYYCARDLELAGAFDIWGQGTMVTVSL
VL: DIQLTQSPSFLSASVGDRVTITCRASQGISSYLAWYQQKPGKAPKVLIYAASTLQSGVPSRFSGSGSGTEFTLTISSLQPEDFATYYCQQLNSYPPSTFGQGTKLEIK
notes: also called antibody number 11; family A
B18: SARS2-11D5_f3 (antibody, V domains shown)
VH: EVQLVETGGGLIQPGGSLRLSCAASGITVSSNYMSWVRQAPGKGLEWVSVIYSGGSTYYADSVKGRFTISRDNSKNTLYLQMNSLRAEDTAVYYCARDLAVAGAFDIWGQGTMVTVSL
VL: DIQLTQSPSFLSASVGDRVTITCRASQGISSYLAWYQQKPGKAPKVLIYAASTLQSGVPSRFSGSGSGTEFTLTISSLQPEDFATYYCQQLNSYPPSTFGQGTKLEIK
notes: also called antibody number 12
B19: SARS2-19C4_f3 (antibody, V domains shown)
VH: EVQLVETGGGLIQPGGSLRLSCAASGITVSSNYMNWVRQAPGKGLEWVSVIYSGGSTFYADSVKGRFTISRDNSKNTLYLQMNSLRAEDTAVYYCARDLEVAGGFDIWGQGTMVTVSL
VL: DIQLTQSPSFLSASVGDRVTITCRASQGISSYLAWYQQKPGKAPKVLIYAASTLQSGVPSRFSGSGSGTKFTLTISSLQPEDFATYYCQQLNSFPPSTFGQGTKLEIK
notes: also called antibody number 20; family A

Columns and labels:
[1] = molecular target: T1, SARS-CoV-2 spike receptor binding domain (RBD) (SARS-CoV-2, UniProt P0DTC2 319-541); experiment: RBD/ACE2 competition; RBD binding to ACE2 on HEK-293 cells
T1 construct: also called SARS-CoV RBD

[2] = molecular target: T2, SARS-CoV-2 spike protein (full length, wild type) (SARS-CoV-2, UniProt P0DTC2 14-1273); experiment: cell-based or functional assay
[3] = molecular target: T1, SARS-CoV-2 spike receptor binding …; experiment: RBD/ACE2 competition; RBD binding to ACE2 on HEK-293 cells; remark: listed apart in the source
[4] = molecular target: T2, SARS-CoV-2 spike protein (full length, …); experiment: cell-based or functional assay; remark: listed apart in the source

| Binder | ACE2 binding [% inhibition] [1] | EC50 (pM) [2] | ACE2 Inhibition (%) [3] | Inhibition: EC50 [pM] [4] |
| --- | --- | --- | --- | --- |
| B1 | 96% | 145 pM | 96% | – |
| B2 | 87% | 59 pM | 87% | – |
| B3 | 97% | 284 pM | 97% | – |
| B4 | 82% | 62 pM | 82% | – |
| B5 | 95% | 47 pM | 95% | – |
| B6 | 100% | 377 pM | 100% | – |
| B7 | 90% | 74 pM | 90% | 109 pM |
| B8 | 88% | 75 pM | 88% | – |
| B9 | 94% | 49 pM | 94% | 94 pM |
| B10 | 98% | 59 pM | 98% | – |
| B11 | 94% | 107 pM | 94% | – |
| B12 | 65% | 151 pM | 65% | – |
| B13 | 93% | 100 pM | 93% | – |
| B14 | 85% | 105 pM | 85% | – |
| B15 | 85% | 152 pM | 85% | – |
| B16 | 86% | 218 pM | 86% | – |
| B17 | 81% | 1020 pM | 81% | – |
| B18 | 66% | 440 pM | 66% | – |
| B19 | 89% | 492 pM | 89% | – |
